Data published in paper PMC4981287.

How the values were obtained:
[1] = target: HiLyteFluor488-labeled amyloid-β(1-40) fibrils (UniProt P05067); test: confocal two-color coincidence detection
[2] = target: HiLyteFluor488-labeled amyloid-β(1-40) oligomers formed from the disaggregation of fibrils (UniProt P05067); test: confocal two-color coincidence detection
[3] = target: HiLyteFluor488-labeled amyloid-β(1-40) fibrils (UniProt P05067)

HiLyteFluor488-labeled amyloid-β(1-40) oligomers formed from the disaggregation of fibrils, sequence (P05067 672-711): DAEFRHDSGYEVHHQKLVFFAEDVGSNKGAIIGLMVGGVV
HiLyteFluor488-labeled amyloid-β(1-40) fibrils, sequence (P05067 672-711): as above

AlexaFluor647-labeled αB-crystallin (from UniProt P02511 1-175) (natural protein)
koff [1]: 4.4e-05 s⁻¹
half-time for dissociation [2]: 17 h
stoichiometry N (αB-crystallin molecule per Aβ monomer) [2]: 1
Kd [3]: 1200 nM
